Values belong to the binder of their own block, whether it stands above or below them.
Experiments:
[1] = molecular target: Mesothelin (SwissProt reference Q13421-3) (Homo sapiens, UniProt Q13421 37-622); assay: cell-based or functional assay
Carboanhydrase IX = Carboanhydrase IX (Homo sapiens, UniProt Q16790 38-459); assay: cell-based or functional assay

IC50 (nM), HT29 meso+ cells, MTT proliferation assay [1]: 1.6 nM
B2: Example 377, conjugate of anti-mesothelin antibody MF-Ta (antibody, human IgG1, lambda, V domains shown)
VH: QVELVQSGAEVKKPGESLKISCKGSGYSFTSYWIGWVRQAPGKGLEWMGIIDPGDSRTRYSPSFQGQVTISADKSISTAYLQWSSLKASDTAMYYCARGQLYGGTYMDGWGQGTLVTVSS
VL: DIALTQPASVSGSPGQSITISCTGTSSDIGGYNSVSWYQQHPGKAPKLMIYGVNNRPSGVSNRFSGSKSGNTASLTISGLQAEDEADYYCSSYDIESATPVFGGGTKLTVLG
modifications: toxophore-linker on Cys sulfur, sites not given

IC50 (nM), HT29 meso+ cells, MTT proliferation assay [1]: 0.09 nM
B3: Example 157, conjugate of anti-mesothelin antibody MF-Ta (antibody, human IgG1, lambda, V domains shown)
VH: B2 VH
VL: B2 VL
modifications: toxophore-linker, coupling residue not stated

IC50 (nM), HT29 meso+ cells, MTT proliferation assay [1]: 177 nM
B16: Example 159, conjugate of anti-mesothelin antibody MF-Ta (antibody, human IgG1, lambda, V domains shown)
VH: B2 VH
VL: B2 VL
modifications: toxophore-linker, coupling residue not stated

IC50 (nM), HT29 meso+ cells, MTT proliferation assay [1]: 1.3 nM
B17: Example 366, conjugate of anti-mesothelin antibody MF-Ta (antibody, human IgG1, lambda, V domains shown)
VH: B2 VH
VL: B2 VL
modifications: toxophore-linker on Cys sulfur, sites not given

IC50 (nM), HT29 meso+ cells, MTT proliferation assay [1]: 0.04 nM
B19: Example 378, conjugate of anti-mesothelin antibody MF-Ta (antibody, human IgG1, lambda, V domains shown)
VH: B2 VH
VL: B2 VL
modifications: toxophore-linker on Lys NH, sites not given

IC50 (nM), HT29 meso+ cells, MTT proliferation assay [1]: 0.06 nM
B21: Example 367, conjugate of anti-mesothelin antibody MF-Ta (antibody, human IgG1, lambda, V domains shown)
VH: B2 VH
VL: B2 VL
modifications: toxophore-linker on Lys NH, sites not given

IC50 (nM), HT29 meso+ cells, MTT proliferation assay [1]: 15 nM
B29: Example 380 (Diastereomer 2), conjugate of anti-mesothelin antibody MF-Ta (antibody, human IgG1, lambda, V domains shown)
VH: B2 VH
VL: B2 VL
modifications: toxophore-linker on Lys NH, sites not given

IC50 (nM), HT29 meso+ cells, MTT proliferation assay [1]: 0.18 nM
B30: Example 158, conjugate of anti-mesothelin antibody MF-Ta (antibody, human IgG1, lambda, V domains shown)
VH: B2 VH
VL: B2 VL
modifications: toxophore-linker, coupling residue not stated

IC50 (nM), HT29 meso+ cells, MTT proliferation assay [1]: 3.1 nM
B31: Example 368, conjugate of anti-mesothelin antibody MF-Ta (antibody, human IgG1, lambda, V domains shown)
VH: B2 VH
VL: B2 VL
modifications: toxophore-linker on Lys NH, sites not given

IC50 (nM), HT29 meso+ cells, MTT proliferation assay [1]: 0.02 nM
B35: Example 369, conjugate of anti-mesothelin antibody MF-Ta (antibody, human IgG1, lambda, V domains shown)
VH: B2 VH
VL: B2 VL
modifications: toxophore-linker on Lys NH, sites not given

IC50 (nM), HT29 meso+ cells, MTT proliferation assay [1]: 7 nM
B40: Example 379 (Diastereomer 1), conjugate of anti-mesothelin antibody MF-Ta (antibody, human IgG1, lambda, V domains shown)
VH: B2 VH
VL: B2 VL
modifications: toxophore-linker on Lys NH, sites not given

MIAPaCa 2/CA9+ IC50 (Carboanhydrase IX): 3.8 nM
B41: Example 313 (antibody, human IgG1, kappa, V domains shown)
VH: QVELVESGGGLVQPGGSLRLSCAASGFTFSSYGMSWVRQAPGKGLEWVSGISSLGSTTYYADSVKGRFTISRDNSKNTLYLQMNSLRAEDTAVYYCARTGSPGTFMHGDHWGQGTLVTVSS
VL: DIQMTQSPSSLSASVGDRVTITCRASQDINNYLSWYQQKPGKAPKLLIYGASNLQSGVPSRFSGSGSGTDFTLTISSLQPEDFAVYYCQQYYGRPTTFGQGTKVEIKR
modifications: linker-toxophore on cysteine S

MIAPaCa 2/CA9+ IC50 (Carboanhydrase IX): 150 nM
B42: Example 314 (antibody, human IgG1, kappa, V domains shown)
VH: B41 VH
VL: B41 VL
modifications: linker-toxophore on lysine NH

MIAPaCa 2/CA9+ IC50 (Carboanhydrase IX): 3.2 nM
B43: Example 315 (antibody, human IgG1, kappa, V domains shown)
VH: B41 VH
VL: B41 VL
modifications: linker-toxophore on cysteine S

Continued, binder first:

B1: Example 115, conjugate of anti-mesothelin antibody MF-Ta (antibody, human IgG1, lambda, V domains shown)
VH: B2 VH
VL: B2 VL
modifications: toxophore-linker on Cys sulfur, sites not given
IC50 (nM), HT29 meso+ cells, MTT proliferation assay [1]: 0.06 nM

B4: Example 137, conjugate of anti-mesothelin antibody MF-Ta (antibody, human IgG1, lambda, V domains shown)
VH: B2 VH
VL: B2 VL
modifications: toxophore-linker on Cys sulfur, sites not given
IC50 (nM), HT29 meso+ cells, MTT proliferation assay [1]: 0.04 nM

B5: Example 136, conjugate of anti-mesothelin antibody MF-Ta (antibody, human IgG1, lambda, V domains shown)
VH: B2 VH
VL: B2 VL
modifications: toxophore-linker on Lys NH, sites not given
IC50 (nM), HT29 meso+ cells, MTT proliferation assay [1]: 1.6 nM

B6: Example 144, conjugate of anti-mesothelin antibody MF-Ta (antibody, human IgG1, lambda, V domains shown)
VH: B2 VH
VL: B2 VL
modifications: toxophore-linker on Lys NH, sites not given
IC50 (nM), HT29 meso+ cells, MTT proliferation assay [1]: 2.7 nM

B7: Example 154, conjugate of anti-mesothelin antibody MF-Ta (antibody, human IgG1, lambda, V domains shown)
VH: B2 VH
VL: B2 VL
modifications: toxophore-linker on Cys sulfur, sites not given
IC50 (nM), HT29 meso+ cells, MTT proliferation assay [1]: 2.2 nM

B8: Example 140, conjugate of anti-mesothelin antibody MF-Ta (antibody, human IgG1, lambda, V domains shown)
VH: B2 VH
VL: B2 VL
modifications: toxophore-linker on Lys NH, sites not given
IC50 (nM), HT29 meso+ cells, MTT proliferation assay [1]: 6.8 nM

B9: Example 145, conjugate of anti-mesothelin antibody MF-Ta (antibody, human IgG1, lambda, V domains shown)
VH: B2 VH
VL: B2 VL
modifications: toxophore-linker on Lys NH, sites not given
IC50 (nM), HT29 meso+ cells, MTT proliferation assay [1]: 7.4 nM

B10: Example 149, conjugate of anti-mesothelin antibody MF-Ta (antibody, human IgG1, lambda, V domains shown)
VH: B2 VH
VL: B2 VL
modifications: toxophore-linker on Lys NH, sites not given
IC50 (nM), HT29 meso+ cells, MTT proliferation assay [1]: 3.1 nM

B11: Example 135, conjugate of anti-mesothelin antibody MF-Ta (antibody, human IgG1, lambda, V domains shown)
VH: B2 VH
VL: B2 VL
modifications: toxophore-linker on Cys sulfur, sites not given
IC50 (nM), HT29 meso+ cells, MTT proliferation assay [1]: 0.25 nM

B12: Example 141, conjugate of anti-mesothelin antibody MF-Ta (antibody, human IgG1, lambda, V domains shown)
VH: B2 VH
VL: B2 VL
modifications: toxophore-linker on Cys sulfur, sites not given
IC50 (nM), HT29 meso+ cells, MTT proliferation assay [1]: 43 nM

B13: Example 155, conjugate of anti-mesothelin antibody MF-Ta (antibody, human IgG1, lambda, V domains shown)
VH: B2 VH
VL: B2 VL
modifications: toxophore-linker, coupling residue not stated
IC50 (nM), HT29 meso+ cells, MTT proliferation assay [1]: 0.5 nM

B14: Example 138, conjugate of anti-mesothelin antibody MF-Ta (antibody, human IgG1, lambda, V domains shown)
VH: B2 VH
VL: B2 VL
modifications: toxophore-linker on Cys sulfur, sites not given
IC50 (nM), HT29 meso+ cells, MTT proliferation assay [1]: 0.3 nM

B15: Example 151, conjugate of anti-mesothelin antibody MF-Ta (antibody, human IgG1, lambda, V domains shown)
VH: B2 VH
VL: B2 VL
modifications: toxophore-linker on Cys sulfur, sites not given
IC50 (nM), HT29 meso+ cells, MTT proliferation assay [1]: > 1000 nM

B18: Example 142, conjugate of anti-mesothelin antibody MF-Ta (antibody, human IgG1, lambda, V domains shown)
VH: B2 VH
VL: B2 VL
modifications: toxophore-linker on Cys sulfur, sites not given
IC50 (nM), HT29 meso+ cells, MTT proliferation assay [1]: 0.27 nM

B20: Example 152, conjugate of anti-mesothelin antibody MF-Ta (antibody, human IgG1, lambda, V domains shown)
VH: B2 VH
VL: B2 VL
modifications: toxophore-linker on Lys NH, sites not given
IC50 (nM), HT29 meso+ cells, MTT proliferation assay [1]: 4.1 nM

B22: Example 153, conjugate of anti-mesothelin antibody MF-Ta (antibody, human IgG1, lambda, V domains shown)
VH: B2 VH
VL: B2 VL
modifications: toxophore-linker on Cys sulfur, sites not given
IC50 (nM), HT29 meso+ cells, MTT proliferation assay [1]: 30 nM

B23: Example 148, conjugate of anti-mesothelin antibody MF-Ta (antibody, human IgG1, lambda, V domains shown)
VH: B2 VH
VL: B2 VL
modifications: toxophore-linker on Lys NH, sites not given
IC50 (nM), HT29 meso+ cells, MTT proliferation assay [1]: 425 nM

B24: Example 131, conjugate of anti-mesothelin antibody MF-Ta (antibody, human IgG1, lambda, V domains shown)
VH: B2 VH
VL: B2 VL
modifications: toxophore-linker on Cys sulfur, sites not given
IC50 (nM), HT29 meso+ cells, MTT proliferation assay [1]: 0.09 nM

B25: Example 156, conjugate of anti-mesothelin antibody MF-Ta (antibody, human IgG1, lambda, V domains shown)
VH: B2 VH
VL: B2 VL
modifications: toxophore-linker, coupling residue not stated
IC50 (nM), HT29 meso+ cells, MTT proliferation assay [1]: 4.6 nM

B26: Example 129, conjugate of anti-mesothelin antibody MF-Ta (antibody, human IgG1, lambda, V domains shown)
VH: B2 VH
VL: B2 VL
modifications: toxophore-linker on Cys sulfur, sites not given
IC50 (nM), HT29 meso+ cells, MTT proliferation assay [1]: 5.3 nM

B27: Example 147, conjugate of anti-mesothelin antibody MF-Ta (antibody, human IgG1, lambda, V domains shown)
VH: B2 VH
VL: B2 VL
modifications: toxophore-linker on Lys NH, sites not given
IC50 (nM), HT29 meso+ cells, MTT proliferation assay [1]: 5.6 nM

B28: Example 132, conjugate of anti-mesothelin antibody MF-Ta (antibody, human IgG1, lambda, V domains shown)
VH: B2 VH
VL: B2 VL
modifications: toxophore-linker on Lys NH, sites not given
IC50 (nM), HT29 meso+ cells, MTT proliferation assay [1]: 3.3 nM

B32: Example 150, conjugate of anti-mesothelin antibody MF-Ta (antibody, human IgG1, lambda, V domains shown)
VH: B2 VH
VL: B2 VL
modifications: toxophore-linker on Lys NH, sites not given
IC50 (nM), HT29 meso+ cells, MTT proliferation assay [1]: < 0.1 nM

B33: Example 143, conjugate of anti-mesothelin antibody MF-Ta (antibody, human IgG1, lambda, V domains shown)
VH: B2 VH
VL: B2 VL
modifications: toxophore-linker on Lys NH, sites not given
IC50 (nM), HT29 meso+ cells, MTT proliferation assay [1]: 0.3 nM

B34: Example 130, conjugate of anti-mesothelin antibody MF-Ta (antibody, human IgG1, lambda, V domains shown)
VH: B2 VH
VL: B2 VL
modifications: toxophore-linker on Cys sulfur, sites not given
IC50 (nM), HT29 meso+ cells, MTT proliferation assay [1]: 0.13 nM

B36: Example 133, conjugate of anti-mesothelin antibody MF-Ta (antibody, human IgG1, lambda, V domains shown)
VH: B2 VH
VL: B2 VL
modifications: toxophore-linker on Cys sulfur, sites not given
IC50 (nM), HT29 meso+ cells, MTT proliferation assay [1]: 2.1 nM

B37: Example 134, conjugate of anti-mesothelin antibody MF-Ta (antibody, human IgG1, lambda, V domains shown)
VH: B2 VH
VL: B2 VL
modifications: toxophore-linker on Cys sulfur, sites not given
IC50 (nM), HT29 meso+ cells, MTT proliferation assay [1]: 0.03 nM

B38: Example 139, conjugate of anti-mesothelin antibody MF-Ta (antibody, human IgG1, lambda, V domains shown)
VH: B2 VH
VL: B2 VL
modifications: toxophore-linker on Cys sulfur, sites not given
IC50 (nM), HT29 meso+ cells, MTT proliferation assay [1]: 70 nM

B39: Example 146, conjugate of anti-mesothelin antibody MF-Ta (antibody, human IgG1, lambda, V domains shown)
VH: B2 VH
VL: B2 VL
modifications: toxophore-linker on Lys NH, sites not given
IC50 (nM), HT29 meso+ cells, MTT proliferation assay [1]: 13 nM
